Tested on: SHEP cells
Assay: SHEP cell adhesion and spreading assay on immobilized proteins
Format: cell-based, human
Conditions: protein immobilized on plastic microplate
Protocol: Cell adhesion assays were essentially performed as described elsewhere (Weinacker et al., 1994). To prepare protein-coated surfaces the protein of interest (10 μg/ml in PBS) was applied to 96-well ELISA (Greiner) plates or to glass cover slips for 12-18 hours at +4° C. After incubation, the surfaces were washed with PBS and blocked with 1% globulin-free BSA for two hours. Some GDNF coated surfaces were incubated with 20 μg/ml of G-90 (Amgen) GDNF function-blocking antibodies (Xu et al., 1998) for 2 hours at room temperature.
Subconfluent SHEP cells were harvested in PBS supplemented with 10 mM EDTA for 5 min at 37° C. Cells were washed with incubation buffer (RPMI 1640, 0.2% BSA, 15 mM HEPES pH 7.2) and 10000-40000 cells/well plated on the protein coated surface. Plates were centrifuged for 5 min at 10 g and incubated for one hour at 37° C. in 5% CO2. After incubation cells were washed with PBS, fixed with methanol supplemented with crystal violet for 15 min at room temperature and washed again with PBS. The remaining cells were counted using a Leica DMIRB inverted microscope with 10× objective in 5 fields per well.
Some cells were pretreated with heparinase III, PI-PLC (see above), 0.3 U/ml chodroitinase ABC for one hour at 37° C., 5% CO2, or with 20 μg/ml of NCAM blocking antibodies (AB5032, Chemicon Inc.) for 15-30 min on ice.
After one hour of incubation in serum-free medium unattached cells were removed by washing. The remaining cells were stained and counted on Leica DMIRB inverted microscope with a 10× objective in 5 fields per well and the resulting cell number was calculated for the whole well.
Live SHEP cells spreading on immobilized GDNF were imaged for 20 minutes using the Till imaging system with an Imago-QE digital camera (Till Photonics) equipped with heating (+37° C.) and CO2 supply (5%) chambers.

B1: GDNF: Glial cell line-derived neurotrophic factor, secreted growth factor, GDNF family ligand (protein)
chain: SPDKQMAVLPRRERNRQAAAANPENSRGKGRRGQRGKNRGCVLTAIHLNVTDLGLGYETKEELIFRYCSGSCDAAETTYDKILKNLSRNRRLVSDKVGQACCRPIAFDDDLSFLDDNLVYHILRKHSAKRCGCI
- adherence and spreading of SHEP cells on immobilized protein: induced adherence and spreading

From patent US8034572B2, “Receptor for GDNF family ligands” (priority 2006, dated 2011)
